Key:
[1] = molecular target: Cytolysin A (ClyA) wild type, N-terminally His6-tagged (E. coli) (UniProt P77335); test: FRET or BRET; single-molecule intramolecular FRET of ~100 pM labelled ClyA freely diffusing, with 5 nM to 5 uM unlabelled ClyAwt; assembly triggered with 0.1% (w/v) DDM by manual mixing; 22 °C; 20 mM potassium phosphate pH 7.3, 150 mM NaCl, 0.001% Tween-20, 10 mM DTT; global fit of the histogram time series with the non-sequential assembly model (irreversible steps)
[2] = molecular target: Cytolysin A (ClyA) wild type, N-terminally His6-tagged (E. coli) (UniProt P77335); test: FRET or BRET + cross-linking; rate coefficient of pore closure in the non-sequential assembly model fitted to the single-molecule FRET data, set so that the predicted formation of complete pores matches the cross-linking data (500 nM ClyAwt, 0.1% DDM, 22 °C)

Question: How did the k5 (association rate coefficient of all oligomerization steps that lead to incomplete pores) [1] turn out when “ClyA Q56C/E252C labelled with Alexa Fluor 488 at Cys56 and Alexa Fluor 594 at Cys252 (from UniProt P77335 2-303) (natural protein)” was run?
Answer: 102000 M⁻¹ s⁻¹

Question: For “Cytolysin A (ClyA) wild type, N-terminally His6-tagged (from UniProt P77335 2-303) (natural protein)”, which k6 (association rate coefficient of pore closure, two oligomers to the complete pore) [2] is on record?
Answer: > 1e+07 M⁻¹ s⁻¹

Reference: PMC4347018
